The supplement of paper PMC7125110
± gives the standard error. Variants at the floor of the assay were thinned out.

B1: glmS ribozyme (parent)
chain: AUAAAAGCGCCAGAACUACAGAAAUGUAGUUGACGAGGAGGAGGUUUAUCGAAUUUUCGGCGGAUGCCUCCAAA

How the values were obtained:
Conditions in all cases: with glucosamine-6-phosphate
[1] = variants of: B1; test: self-cleavage kobs at 160 uM GlcN6P; higher = faster cleavage; RNA array
Summary of the method: (§1)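 Glucosamine-6-phosphate in HEPES/KCl/Mg(OAc)2 buffer, at 40 μM to 10 mM, was flowed over barcoded ribozyme variants transcribed in situ by E. coli RNA polymerase on sequenced MiSeq chips. Tracking was through a hybridised Cy3 probe at 37 °C. kobs, kcat and KM came from exponential decay fits and weighted Michaelis–Menten fits of normalised per-tile medians.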

[2] = variants of: B1; test: self-cleavage kobs at 640 uM GlcN6P; higher = faster cleavage; RNA array
Summary of the method: as §1

[3] = variants of: B1; test: self-cleavage kobs at 2500 uM GlcN6P; higher = faster cleavage; RNA array
Summary of the method: as §1

[4] = variants of: B1; test: self-cleavage kobs at 10000 uM GlcN6P; higher = faster cleavage; RNA array
Summary of the method: as §1

Variant | self-cleavage kobs at 160 uM GlcN6P [1] [s⁻¹] | self-cleavage kobs at 640 uM GlcN6P [2] [s⁻¹] | self-cleavage kobs at 2500 uM GlcN6P [3] [s⁻¹] | self-cleavage kobs at 10000 uM GlcN6P [4] [s⁻¹]
A14U G35U A39G C50U | < 1e-05 |  |  | 
G29A U31G C50U C68A | 5.27e-05 ± 2.2e-05 | 7.43e-05 ± 2.9e-05 | 8.2e-05 ± 3.2e-05 | 
A15C G60C C61U | < 1e-05 |  |  | 
G29U G38C A39U C50A | < 1e-05 | < 1e-05 |  | 
C34U G37C | < 1e-05 |  |  | < 1e-05
A33U U47C C67G | < 1e-05 | < 1e-05 | < 1e-05 | 
A33G A53U | < 1e-05 |  | < 1e-05 | < 1e-05
C16G G62C | < 1e-05 | < 1e-05 | < 1e-05 | 
A33G A39C | < 1e-05 | < 1e-05 | < 1e-05 | < 1e-05
U30A G59U C61U | < 1e-05 | < 1e-05 |  | 
G32C G44C C58U G59A U65A C71U | < 1e-05 |  |  | 
C34U G51C | < 1e-05 | < 1e-05 | < 1e-05 | < 1e-05
C16G A39G A48G C58G A64U | < 1e-05 | < 1e-05 |  | 
C16G A39C U45C A48C | < 1e-05 | < 1e-05 |  | 
A33C G40U G44C U45A G62U | < 1e-05 |  |  | 
C34A G63A | < 1e-05 | < 1e-05 | < 1e-05 | 
G29C G37C G41C | < 1e-05 |  | < 1e-05 | 
C34U U49G | < 1e-05 |  | < 1e-05 | < 1e-05
G35A G40A U46C G60U | < 1e-05 |  | < 1e-05 | 

Variant | self-cleavage kobs at 160 uM GlcN6P [1] [s⁻¹] | self-cleavage kobs at 640 uM GlcN6P [2] [s⁻¹] | self-cleavage kobs at 2500 uM GlcN6P [3] [s⁻¹] | self-cleavage kobs at 10000 uM GlcN6P [4] [s⁻¹]
U30C G35U C58U C61A | < 1e-05 | < 1e-05 | < 1e-05 | 
G21U C71G | 0.000226 ± 5.1e-05 | 0.000218 ± 3.9e-05 | 0.000294 ± 5.9e-05 | 
A15C U30G C34U G40A U55A | < 1e-05 |  |  | 
C16U G51C | < 1e-05 | < 1e-05 | < 1e-05 | 
C34A C61A | < 1e-05 | < 1e-05 | < 1e-05 | 
U30A G51A | < 1e-05 |  |  | 
G35A C70G | < 1e-05 | < 1e-05 |  | 
C34G A53U C68U | < 1e-05 |  | < 1e-05 | 
C16G G37A A48U U49C | < 1e-05 |  |  | 
G35A G43A | < 1e-05 |  | < 1e-05 | 
U17C C50G C71U | 6.74e-05 ± 2.2e-05 | 0.000319 ± 9.7e-05 | 0.000253 ± 4.6e-05 | 
C34A U47C A48C | < 1e-05 |  |  | 
A15C G38C C70G | < 1e-05 |  |  | 
A14U C16A A33C | < 1e-05 | < 1e-05 |  | 
A15C C16G C67G | < 1e-05 |  |  | 
U30C U55A | 3.75e-05 ± 1.3e-05 | 9.3e-05 ± 1.6e-05 |  | 
A14G A15G U55G A64G | 0.00524 ± 0.0017 | 0.00775 ± 0.002 |  | 
C19A C34G A39C | < 1e-05 | < 1e-05 | < 1e-05 | 
A15G G21C A39G G40C A48C C58U | < 1e-05 |  |  | 

Variant | self-cleavage kobs at 160 uM GlcN6P [1] [s⁻¹] | self-cleavage kobs at 640 uM GlcN6P [2] [s⁻¹] | self-cleavage kobs at 2500 uM GlcN6P [3] [s⁻¹] | self-cleavage kobs at 10000 uM GlcN6P [4] [s⁻¹]
C34A G37A C58U | < 1e-05 |  |  | 
C16U G38U U54C G66U C71A | < 1e-05 | < 1e-05 |  | 
A20U U56C | 0.000306 ± 8.2e-05 |  | 0.0029 ± 0.00075 | 
U17G | 0.00191 ± 0.00076 | 0.00535 ± 0.0016 |  | 
A15U A42C | < 1e-05 | < 1e-05 | < 1e-05 | < 1e-05
G29A G32C A33U G60C G66U | < 1e-05 |  |  | < 1e-05
A15C C58U C61A | 0.0001 ± 4.6e-05 | 6.79e-05 ± 2.5e-05 |  | 
C34U G40U C71U | < 1e-05 |  | < 1e-05 | 
A15U A36C G41U C71G | < 1e-05 | < 1e-05 |  | 
A14U U47G C68G | 7.2e-05 ± 2.9e-05 | 0.000125 ± 2.8e-05 | 5.08e-05 ± 2.3e-05 | 
G32A U55G G59C C70G | 6.64e-05 ± 2.6e-05 | 0.000174 ± 6.5e-05 | 5.89e-05 ± 2.5e-05 | 
U30A G32A A39G | 6.92e-05 ± 2.4e-05 | 0.000602 ± 0.00013 | 0.000618 ± 0.0002 | 0.00306 ± 0.00073
C34G A53G C68G | 0.000101 ± 2.4e-05 | 0.000115 ± 2.5e-05 | 8.44e-05 ± 3.6e-05 | 
G26U G35A C50G U56G | 6.16e-05 ± 2.2e-05 |  | 8.89e-05 ± 1.8e-05 | 
U31A G63C C68G | < 1e-05 |  |  | 
A33U U45G | < 1e-05 |  |  | 3.8e-05 ± 7.6e-06
G29U A42U A52U C67G | < 1e-05 | < 1e-05 |  | 
A15G C16U A33U A39G | < 1e-05 |  |  | 
A15G A33G | < 1e-05 | < 1e-05 |  | < 1e-05
